Measured values taken from the DeepSol protein solubility set.

Assay: soluble on expression in E. coli; label from the status in PepcDB or PDB records

| Sequence | soluble on expression in E. coli |
| --- | --- |
| MGSDKIHHHHHHMYFNVYGHAGKPIIVFPSSGGSQNEYGDFGMIEACQSFIDRGVVKFYTPDSLDRESWLAEGKSGHDMALAHEAYDRYIVHELVPLIRYESNWNGMMMATGCSMGAFHTVNFSLRHPDLFDISVALSGVYDARFFTGEFYGDPAVYYNSPIDYLWNQEDSWFLDRYRRNRFIVAVGQGAWEEPHIIDTIRLKEAFEAKSIPAWFDFWGSDVAHDWEWWRVQMPYFLGKLEEEGRI | not soluble |
| MYTQTLYELSQEAERLLQLSRQQLQLLEKMPLSVPGDDAPQLALPWSQPNIAERHAMLNNELRKISRLEMVLAIVGTMKAGKSTTINAIVGTEVLPNRNRPMTALPTLIRHTPGQKEPVLHFSHVAPIDCLIQKLQQRLRDCDIKHLTDVLEIDKDMRALMQRIENGVAFEKYYLGAQPIFHCLKSLNDLVRLAKALDVDFPFSAYAAIEHIPVIEVEFVHLAGLESYPGQLTLLDTPGPNEAGQPHLQKMLNQQLARASAVLAVLDYTQLKSISDEEVREAILAVGQSVPLYVLVNKFDQQDRNSDDADQVRALISGTLMKGCITPQQIFPVSSMWGYLANRARHELANNGKLPPPEQQRWVEDFAHAALGRRWRHADLADLEHIRHAADQLWEDSLFAQPIQMLLHAAYANASLYALRSAAHKLLNYAQQAREYLDFRAHGLNVACEQLRQNIHQIEESLQLLQLNQAQVSGEIKHEIELALTSANHFLRQQQDALKVQLAALFQDDSEPLSEIRTRCETLLQTAQNTISRDFTLRFAELESTLCRVLTDVIRPIEQQVKMELSESGFRPGFHFPVFHGVVPHFNTRQLFSEVISRQEATDEQSTRLGVVRETFSRWLNQPDWGRGNEKSPTETVDYSVLQRALSAEVDLYCQQMAKVLAEQVDESVTAGMNTFFAEFASCLTELQTRLRESLALRQQNESVVRLMQQQLQQTVMTHGWIYTDAQLLRDDIQTLFTAERY | not soluble |
| MSLKVWITGAGGMMGSHLAEMLLAAGHDVYATYCRPTIDPSDLQFNGAEVDITDWCSVYDSIATFRPDAVFHLAAQSYPAVSWARPVETLTTNMVGTAIVFEALRRVRPHAKIIVAGSSAEYGFVDPSEVPINERRELRPLHPYGVSKAATDMLAYQYHKSYGMHTVVARIFNCTGPRKVGDALSDFVRRCTWLEHHPEQSAIRVGNLKTKRTIVDVRDLNRALMLMLDKGEAGADYNVGGSIAYEMGDVLKQVIAACKRDDIVPEVDPALLRPTDEKIIYGDCSKLAAITGWQQEICLTQTIADMFDYWRSKSESAEGHHHHHH | soluble |
| MGSDKIHHHHHHMEKGSIKILGEGFISSGEYENIKIVGSSKSKGNVKSNEVKVLGDAKFEGDINIKNFVVNGKTIIRGNLKAERVRVNGQLNIEGDAEIDDLVITAQQKVDGKLKCNNVTIRGQLSVNENMYAQDIKIYGEMRNKSNIECEDIKVYGVIKCDGLLNGENIYVYSGGGSYCKEIGATNIKIGRSKDAFSLIKIINIFSGKFKCNLIEGDTIELEDASIKDIRGKSISLVDNCDVGNIEYSDNLSVSDNSTVKNSIKVG | not soluble |
| MMKTFHWKVDPDMGVDSEPQVSVVRFGDGYEQRRASGINNDLKKYSVTIRVDREDGPGLEGFLSQHNGVKAFLWTPPYGYRQIKVVCRKWSVKAGLLKTTFTATFEQVIS | not soluble |
| MEAYEKHYQELRQAKNIDGKPFQLIPVPVTRKVVKEADCKGSYLNFYIGNEVVLVPVYGDEHDKLGLQIIEGQFPGRRIVGIYVNELYAYGGMIHCVTQQHIELEHHHHHH | not soluble |
| QAAPSQVVVIRQERAGQTSVSLLWQEPEQPNGIILEYEIKYYEKDKEMQSYSTLKAVTTRATVSGLKPGTRYVFQVRARTSAGCGRFSQAMEVETGKP | soluble |
| GSGSRMKTVDKSKTLTKFEEFFSLQDYKDRVFEAIEKYPNVRSIEVDYLDLEMFDPDLADLLIEKPDDVIRAAQQAIRNIDRLRKNVDLNIRFSGISNVIPLRELRSKFIGKFVAVDGIVRKTDEIRPRIVKAVFECRGCMRHHAVTQSTNMITEPSLCSECGGRSFRLLQDESEFLDTQTLKLQEPLENLSGGEQPRQITVVLEDDLVDTLTPGDIVRVTGTLRTVRDERTKRFKNFIYGNYTEFLEQEFEELQISEEDEEKIKELAGDPNIYEKIIR | soluble |
| MTDKQYSLDDIRLRLNELDDQLLNLLSERRKMSIEVAKSKVETAKPVRDPAREQQLLVKLINAGKEKYQLDPQYITKIFHTIIEDSVLLQQSYLQNLANPQSRKPLARVAFLGAKGSYSHLATREYFSRKNTELIELNCDHFKEVARTVESGHADYGVLPIENTSSGSINEVYDLLQHTTLYIVGELTQPIEHCLVATQEIRLEDLKVLYSHPQPHQQCSEFLSRLKGVKLESCASTADAMKKVQELNRADVAAIGNSASGKLYGLQPIQGNIANQTENHTRFIVVARKPVDVSPQIPAKTTLIMSTSQEAGSLVSTLLVLQRYGINMTKLESRPIMGNPWEEMFYVDLEAHIDSDEMQQALAELTQLTRHLKVLGCYPSENVKPTQVKFI | not soluble |
| MVSAMSNIWSNWSGFVTAEPRLIASPADAGELGDLVRTAPGPVRVVGAGHSFTPLVKSQGTILSLEKLEGLVSHDPQKHQARVKAGTRLGPLMHILQGIGQGLPNMGDIDRQAIGGALGTATHGSGPTLGAYHTQLETVQIVDGLGKVRDFTRAGDQDMIHAIGVALGAFGVLSEVTLNNIATYRLRRRKWVLPIGDMLRDFEKMMTAHRSAEFYYIPFSGYAQFIASDFSTEATTTRPTDDDEGSLRTLRRLRTGLAWLPSLRRRLILGAVAKVPSEDYVQDWLNVYASDRQTKFNEMEYHLPFEEGPKALAEIIELTEKRFPEVYFPMEVRSVAPDKFWLSPFYNRPTCSIAIHHDAASDPLPFMQAAEPIFRRYGGRPHWGKMHSLKAADFKKLYPRWDDAMAVRRDIDPQNRFVSPYMAGLFGIEPSPFGIDPLEHHHHHH | not soluble |
| QYRHMIGQDAGYKAAGLYYVPIESLDQQQLPVVIEKLKALPEVEGYTLTTALPASSGQSGDNLIDPVTDRELINVADLFYVDEHYLKVYDIELLEGKNFDAATEKDREIMLSKKAATELARLMNWKDGVIGKNIILTSFGRVVIRGVYDDLMLRRQHLSPYPEKLPSAIVYGDDWLHYLTIRLRHDDARLLHRVNGILSEADPYKETSFLGVEMELLSRFEAAKTFRNT | not soluble |
| MSVKVAFIRHHNLWIKVDGKEIQITKGEYITGPKWSYDGEWLAYVKGKKQSILELYRLKDGKKVTPFHSEASNYQWSPTENIIAFIFTGTLNTFDVEKKNADFENVSAGVGDYAWYPDGKNFLVSSEAHLLPTGWTGAQLYEVQKDAHMNPHKMKHLYALPNEHDDFLALVASGFKWSPDQKWISFLAVPTASWSADSNTLCLVRADGSRFEKVDQMLLNAQWFQWAPSKNILAYIEGSGRVALENKHLKVKELPALQQNIFTPKGYVDWDFVWKNDRVIIVSRAKEAGIETPPEKRPLPSLYEVDSTSNAQHQITKKTNKQGDYHPIFMKKSNQLIWIRSDRKKADVWLAHKDRKQEKKWIENIDVPAWYYEKWNWGNVISVKEELEHHHHHH | soluble |
| MGSDKIHHHHHHMKLSDFIKTEDFKKEKHVPVIEAPEKVKKDEKVQIVVTVGKEIPHPNTTEHHIRWIKVFFQPDGDPYVYEVGRYEFNAHGESVQGPNIGAVYTEPTVTTVVKLNRSGTIIALSYCNIHGLWESSQKITVEE | soluble |
| MGSDKIHHHHHHMLLTPDDLKACEVELARRSLADFARMAWPVLEPATPLKWGWALDAICEHLEAVSRGESKRLLMNVPPGSMKSLLTGVIWPAYEWGPMDHAEMRFLGTAHKQDLAVRDNLKCRRLIQSQWYQERWPVVLTSDQNAKTKFENARTGFREAMAFESMTGSRGDRVILDDPHSVDDANSAAKLASGVTTFREALPSRVNNDQSAIVIVMQRLNEADVSAVAIDLGYDHLCIPMRYEPGRSKWVYGSGDPRKEEGELMFPERFPEEQVSELEKTMGSYAVAGQLQQRPAPRGGGIIKTAWFRSYRELPALEWRQIHADTAQKTGEENDYSVFQCWGRTTTGQAVLIDQIRGKWEAPDLLTQARAFWLKHKSIPGPVLRAMKVEDKVSGTGLIQTLRREGVAVIPVQRNKDKISRAYDAAAFIESGNVLLPEWADWLDGFTNEAATFPSGAHDDQLDPMFDAIHDVQFGMTVSAAVTRPIPRSVTAFNKR | not soluble |
| MSLGECPEYGKVKWIGNIYCHKYDEATTTLLSISTGTQSLGQDLKQRQAQLSIAKLTALAAEVQDLEKLNEIQTELDLIDGQILLSQELQESTLNPLFKDFTTYRTLFKYLSDAVKRRESLSVPHMIELFTLLNQDTSYGFALSILAIDHTLPTEVKKYCEYQIWRRCLLSDENAVRQTLRVFFKQQFYHQSIELPIIDNLANEKLITDSYLDGMYHGLTDLNKLASDVKREVALFANSNLDVTMLQSIIGEINEETGNQCVINYATNTIETSPTSEGHHHHHH | soluble |
| GSSGARCYVDGSEEIGSDFKIKCEPKEGSLPLQYEWQKLSDSQKMPTSWLAEMTSSVISVKNASSEYSGTYSCTVRNRVGSDQCLLRLNVVPPSNK | soluble |
| MKHHHHHHPMGHMQTLIFLDLEATGLPSSRPEVTELCLLAVHRRALENTSISQGHPPPVPRPPRVVDKLSLCIAPGKACSPGASEITGLSKAELEVQGRQRFDDNLAILLRAFLQRQPQPCCLVAHNGDRYDFPLLQTELARLSTPSPLDGTFCVDSIAALKALEQASSPSGNGSRKSYSLGSIYTRLYWQAPTDSHTAEGDVLTLLSICQWKPQALLQWVDEHARPFSTVKPMYGTPATTGTTNLR | soluble |
| MNRFFILSGCSGGGKSTLLAELARRGFATVEEPGRRIVIEETRNGGTALPWIDMQAFARRAIAMALEDRRVTPKEGLVFFDRGLIDAASALHHISGDRFVNTLRDTHRYNSLVFLTPPWPEIYQSDDERKHGFDAAVEEYERLVRDYEGLGYDIVVLPKSAVAERADLILTRIGLEHHHHHH | not soluble |
| MGSDKIHHHHHHMIEQELTYQDLRIPSSEIYEAMGYKDSIPDQMVIDETNTLLKRVIPLLRPRFAFFFMEGTLDIEKETLSVQSIHPPTVNPIQDTIPTRSPEQNTFSTQSKSTVFSVGKTIARQLRGSEAFVFFAATAGTEFEVFQHTLQQEEDMVKIYIADSLGSIIAEKTADCMEVALAEYIREKNWKHTNRYSPGYCGWHVSEQQKLFPLFPIAAPCGIRLTDSSLMVPIKSVSGVIGTGTNVRKLEYTCGLCTYENCYRKRKHR | not soluble |
| MGSDKIHHHHHHMNQNVTSKVYPWQQTMWETLTTRFPNIGHGLLFYGKQGCGKHAFAKHFLAWVLCLNKQPQGACGECSSCQWLKSDTHPNYVHITTDEENKKQNAKIKIEKIRDLLPFVQQTGEGWRVVVIEPAEALNLASSNALLKTLEEPGERVVLILLADHYLKLPATIRSRLQHFALDRISYTEATSYLNEHLAETASVPAELLLGLSNDMPLQAVEIATSDWFAKRQSFLEDWTKVVNQKNMPLFYSAKWQKELNFSDFMMLLEYLLGDLICVKLNQPQKNIDLQFDQLAQNYNLESLFSLYEELQQSKRLVEQNVQTQLIIDQLFIKLMNV | not soluble |
| GMRGLIVDYAGVLDGTDEDQRRWRNLLAAAKKNGVGTVILSNDPGGLGAAPIRELETNGVVDKVLLSGELGVEKPEEAAFQAAADAIDLPMRDCVLVDDSILNVRGAVEAGLVGVYYQQFDRAVVEIVGLFGLEGEF | soluble |
